In the supplement of paper PMC10899765:

Experiments:
Details in all cases: 20 nM; 72 h
MCF10A [1] = assay: one-nucleolus phenotype percent effect, hitpick validation (relative to siNT 0% and siNOL11 100%); higher = more cells with one nucleolus
Procedure: (§1)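 Primary screen hits (microRNA mimics) were re-picked and rescreened for nucleolar number in MCF10A cells (hitpick validation; percent effect relative to the siNT and siNOL11/siKIF11 controls). A secondary screen measured nucleolar rRNA biogenesis inhibition: after 72 h of transfection at 20 nM, cells were labelled 1 h with 1 mM 5-EU and nucleolar 5-EU signal was quantified, normalised to siNT (0%) and siPOLR1A (100%). Means are over n=5 (MCF10A) or n=2 (RPE-1, HeLa) biological replicates.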

MCF10A [2] = assay: percent viability (nuclei count relative to siNT); higher = more viable cells
Procedure: (§2)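 After 72 h, cells were fixed and stained with Hoechst and anti-fibrillarin, and nucleoli per nucleus were counted with CellProfiler. Values are plate-adjusted percent effect for the one-nucleolus and 5+ nucleoli phenotypes, normalised to siNT (0%) and to the positive controls siNOL11 or siKIF11 (100%), as the mean of biological triplicates. Percent viability is the nuclei count relative to siNT.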

MCF10A [3] = assay: 5+ nucleoli phenotype percent effect (relative to siNT 0% and siKIF11 100%); higher = more cells with five or more nucleoli
Procedure: as §2

MCF10A [4] = assay: 5+ nucleoli phenotype percent effect, hitpick validation (relative to siNT 0% and siKIF11 100%); higher = more cells with five or more nucleoli
Procedure: as §1

MCF10A [5] = assay: one-nucleolus phenotype percent effect (relative to siNT 0% and siNOL11 100%); higher = more cells with one nucleolus (ribosome biogenesis inhibition)
Procedure: as §2

MCF10A [6] = assay: nucleolar rRNA biogenesis percent inhibition (5-EU; siNT 0%, siPOLR1A 100%); higher = stronger inhibition of nucleolar rRNA biogenesis
Procedure: as §1

HeLa = assay: as above
Procedure: as §1

hTERT RPE-1 = assay: as above
Procedure: as §1

CUUAUGCAAGAUUCCCUUCUAC [hsa-miR-491-3p]
one-nucleolus phenotype percent effect (MCF10A [1]): 118%
percent viability (MCF10A [2]): 15.5%
5+ nucleoli phenotype percent effect (MCF10A [3]): -51.5%
5+ nucleoli phenotype percent effect (MCF10A [4]): -10.1%
one-nucleolus phenotype percent effect (MCF10A [5]): 73.6%
nucleolar rRNA biogenesis percent inhibition (MCF10A [6]): 63.6%
nucleolar rRNA biogenesis percent inhibition (HeLa): -3.33%
nucleolar rRNA biogenesis percent inhibition (hTERT RPE-1): -86.4%

GGCCAGCCACCAGGAGGGCUG [hsa-miR-3194-5p]
one-nucleolus phenotype percent effect (MCF10A [1]): 199%
percent viability (MCF10A [2]): 18.6%
5+ nucleoli phenotype percent effect (MCF10A [3]): -36.9%
5+ nucleoli phenotype percent effect (MCF10A [4]): 4.28%
one-nucleolus phenotype percent effect (MCF10A [5]): 81.9%
nucleolar rRNA biogenesis percent inhibition (MCF10A [6]): 22.9%
nucleolar rRNA biogenesis percent inhibition (HeLa): -11.3%
nucleolar rRNA biogenesis percent inhibition (hTERT RPE-1): 50.9%

GUUCUCCCAACGUAAGCCCAGC [hsa-miR-629-3p]
one-nucleolus phenotype percent effect (MCF10A [1]): -55.4%
percent viability (MCF10A [2]): 38.5%
5+ nucleoli phenotype percent effect (MCF10A [3]): 238%
5+ nucleoli phenotype percent effect (MCF10A [4]): 96.3%
one-nucleolus phenotype percent effect (MCF10A [5]): -34.6%
nucleolar rRNA biogenesis percent inhibition (MCF10A [6]): 82.1%
nucleolar rRNA biogenesis percent inhibition (HeLa): 55.5%
nucleolar rRNA biogenesis percent inhibition (hTERT RPE-1): 70.8%

UAAGGCACGCGGUGAAUGCC [hsa-miR-124-3p]
one-nucleolus phenotype percent effect (MCF10A [1]): 139%
percent viability (MCF10A [2]): 39.1%
5+ nucleoli phenotype percent effect (MCF10A [3]): -14.4%
5+ nucleoli phenotype percent effect (MCF10A [4]): 18.1%
one-nucleolus phenotype percent effect (MCF10A [5]): 70.4%
nucleolar rRNA biogenesis percent inhibition (MCF10A [6]): 61.9%
nucleolar rRNA biogenesis percent inhibition (HeLa): 91.7%
nucleolar rRNA biogenesis percent inhibition (hTERT RPE-1): 28.2%

UAUGGCACUGGUAGAAUUCACU [hsa-miR-183-5p]
one-nucleolus phenotype percent effect (MCF10A [1]): 101%
percent viability (MCF10A [2]): 16.2%
5+ nucleoli phenotype percent effect (MCF10A [3]): -24%
5+ nucleoli phenotype percent effect (MCF10A [4]): -0.696%
one-nucleolus phenotype percent effect (MCF10A [5]): 81%
nucleolar rRNA biogenesis percent inhibition (MCF10A [6]): 33.5%
nucleolar rRNA biogenesis percent inhibition (HeLa): 21.8%
nucleolar rRNA biogenesis percent inhibition (hTERT RPE-1): 204%

UCUCUGGGCCUGUGUCUUAGGC [hsa-miR-330-5p]
one-nucleolus phenotype percent effect (MCF10A [1]): 99.9%
percent viability (MCF10A [2]): 17.8%
5+ nucleoli phenotype percent effect (MCF10A [3]): -22.3%
5+ nucleoli phenotype percent effect (MCF10A [4]): 1.29%
one-nucleolus phenotype percent effect (MCF10A [5]): 67.1%
nucleolar rRNA biogenesis percent inhibition (MCF10A [6]): 65.2%
nucleolar rRNA biogenesis percent inhibition (HeLa): 66.1%
nucleolar rRNA biogenesis percent inhibition (hTERT RPE-1): 109%

UGAAGGUCUACUGUGUGCCAGG [hsa-miR-493-3p]
one-nucleolus phenotype percent effect (MCF10A [1]): 126%
percent viability (MCF10A [2]): 28%
5+ nucleoli phenotype percent effect (MCF10A [3]): -34.3%
5+ nucleoli phenotype percent effect (MCF10A [4]): 4.11%
one-nucleolus phenotype percent effect (MCF10A [5]): 73%
nucleolar rRNA biogenesis percent inhibition (MCF10A [6]): 69.3%
nucleolar rRNA biogenesis percent inhibition (HeLa): -1.09%
nucleolar rRNA biogenesis percent inhibition (hTERT RPE-1): 108%

UGCCUGUCUACACUUGCUGUGC [hsa-miR-214-5p]
one-nucleolus phenotype percent effect (MCF10A [1]): 122%
percent viability (MCF10A [2]): 31.1%
5+ nucleoli phenotype percent effect (MCF10A [3]): -42.1%
5+ nucleoli phenotype percent effect (MCF10A [4]): -11.5%
one-nucleolus phenotype percent effect (MCF10A [5]): 93.5%
nucleolar rRNA biogenesis percent inhibition (MCF10A [6]): -8.48%
nucleolar rRNA biogenesis percent inhibition (HeLa): 32%
nucleolar rRNA biogenesis percent inhibition (hTERT RPE-1): 87.1%

UGGCAGUGUCUUAGCUGGUUGU [hsa-miR-34a-5p]
one-nucleolus phenotype percent effect (MCF10A [1]): 28.9%
percent viability (MCF10A [2]): 11.9%
5+ nucleoli phenotype percent effect (MCF10A [3]): -14.4%
5+ nucleoli phenotype percent effect (MCF10A [4]): 19.4%
one-nucleolus phenotype percent effect (MCF10A [5]): 11.2%
nucleolar rRNA biogenesis percent inhibition (MCF10A [6]): 72.2%
nucleolar rRNA biogenesis percent inhibition (HeLa): 37.7%
nucleolar rRNA biogenesis percent inhibition (hTERT RPE-1): 52.6%

UGGUUCUAGACUUGCCAACUA [hsa-miR-182-3p]
one-nucleolus phenotype percent effect (MCF10A [1]): 165%
percent viability (MCF10A [2]): 17.5%
5+ nucleoli phenotype percent effect (MCF10A [3]): -35.8%
5+ nucleoli phenotype percent effect (MCF10A [4]): -12.4%
one-nucleolus phenotype percent effect (MCF10A [5]): 97.2%
nucleolar rRNA biogenesis percent inhibition (MCF10A [6]): 64.6%
nucleolar rRNA biogenesis percent inhibition (HeLa): 9.57%
nucleolar rRNA biogenesis percent inhibition (hTERT RPE-1): 173%

UGUCCUCUAGGGCCUGCAGUCU [hsa-miR-3909]
one-nucleolus phenotype percent effect (MCF10A [1]): 196%
percent viability (MCF10A [2]): 25.5%
5+ nucleoli phenotype percent effect (MCF10A [3]): -34.2%
5+ nucleoli phenotype percent effect (MCF10A [4]): -15.4%
one-nucleolus phenotype percent effect (MCF10A [5]): 93.1%
nucleolar rRNA biogenesis percent inhibition (MCF10A [6]): 42.9%
nucleolar rRNA biogenesis percent inhibition (HeLa): 74.5%
nucleolar rRNA biogenesis percent inhibition (hTERT RPE-1): 66.8%
